US20240309360A1, “TRANS-ACTIVATORS AND METHODS AND USE THEREOF” (THE GOVERNING COUNCIL OF THE UNIVERSITY OF TORONTO, priority 2021, published 2024)

Experiments:
Type in all cases: cell-based, human
[1] = test system: promoter of CD133 gene in HEK293T cells; assay: CD133 induction experiment; details: PYL1 fusion, 1 μM abscisic acid, pool of 5 gRNAs
Experimental: Up to 2 additional TADs selected from p65 and HSF1 were combined with SPDYE4-CITED1 TADs in different orders and tested for the ability to activate transcription of the PYL1-ABI EGFP reporter system (FIG. 17, left panel) or the endogenous CD133 gene (FIG. 17, right panel).
(§1) Methods: Cells were seeded on 48-well plates. Next day, after cells were between 70-90% confluent, 250 ng of each construct was transfected in each well using (Thermo Fisher Scientific, 11668019) reagent. Each construct was either directly fused TagRFP either directly fused to each component or being co-expressed from the same plasmid was used as a measure of transfection. In each experiment, the same gate for RFP+ cells were used to control for the effect of each construct's expression levels on activity. EGFP reporter cells were expanded from a clonal line to control for level of ABI-dCas9 and gRNA targeting the TetO7 sites upstream of the promoter. For the CD133 induction experiment, a 293T cell line stably expressing ABI-dCas9 and a pool of 5 gRNAs targeting the promoter were used for all activators. CD133 antibody conjugated to APC (Miltenyi Biotec, 130-113-668) was used. All activator constructs were fused to PYL1 at their C-terminus and were recruited to their targets by treating the cells with 1 μM abscisic acid for either 24 or 48 hours.

[2] = test system: EGFP reporter (TetO7) in HEK293T cells; assay: Multi-TAD effectors fused to PYL1 recruited to EGFP reporter; details: PYL1 fusion, 1 μM abscisic acid, 24 or 48 hours
Experimental: Multiple TADs were fused together with PYL1 and tested for transcriptional activity using the PYL1-ABI EGFP reporter system described above. The following TAD fragments were used: CITED1-8 (SEQ ID NO: 47), CITED2-12 (SEQ ID NO: 49), C3orf62-12 (SEQ ID NO: 45), BRD8-25 (SEQ ID NO: 40), ZXDC-12 (SEQ ID NO: 97), KLF7-1 (SEQ ID NO: 72), ATXN7L3-1 (SEQ ID NO: 35), FAM90A1-20 (SEQ ID NO: 60), SPDYE4-3 (SEQ ID NO: 90), YAF2-7 (SEQ ID NO: 96).
as §1, with “All activator constructs were fused to PYL1 at their C-terminus and were recruited to their targets by treating the cells with 1 μM abscisic acid for either 24 or 48 hours.” left out

[3] = test system: 7×TetO-EGFP reporter in HEK293T cells; assay: 117 effector domains with rTetR or dCas9 based recruitment systems; details: rTetR fusion (1 μg/ml doxycycline 48 hours) or PYL1 with dCas9-ABI1
Experimental: A further 117 different combinations of activation domains or fragments of individual activation domains were assayed by fusing them either to PYL1 (to test with the dCas9-ABI1 system) or to rTetR, a transcription factor that binds DNA in the presence of doxycycline. All constructs were tested with the same TetO reporter construct.
Methods: 200 ng of plasmid expressing super activators fused to rTetR in their C terminus and 50 ng DsRed was transfected into HEK293T cells stably expressing 7×TetO-EGFP reporter. One day after transfection, cells were treated with 1 μg/ml doxycycline for 48 hours. After the treatment, cells were analyzed by flow cytometry for EGFP expression

B1: SPDYE4-CITED1-P65-HSF1: multi-component effector of SPDYE4, CITED1, p65 and HSF1 activation domains (protein)
chain: MDPSPQPQSLGLKRKSEWSDESEEELEEELELERAPEPEDTWVVETLCGLKMKLKRKRASSGGSGGSESLSPSAGAQSPAIIDSDPVDEEVLMSLVVELGLDRANELPELWLGQNEFDFTADFPSSCGGSINSRSSGSPKKKRKVGSQYLPDTDDRHRIEEKRKRTYETFKSIMKKSPFSGPTDPRPPPRRIAVPSRSSASVPKPAPQPYPFTSSLSTINYDEFPTMVFPSGQISQASALAPAPPQVLPQAPAPAPAPAMVSALAQAPAPVPVLAPGPPQAVAPPAPKPTQAGEGTLSEALLQLQFDDEDLGALLGNSTDPAVFTDLASVDNSEFQQLLNQGIPVAPHTTEPMLMEYPEAITRLVTGAQRPPDPAPAPLGAPGLPNGLLSGDEDFSSIADMDFSALLGSGSGSGFSVDTSALLDLFSPSVTVPDMSLPDLDSSLASIQELLSPQEPPRPPEAENSSPDSGKQLVHYTAQPLFLLDPGSVDTGSNDLPVLFELGEGSYFSEGDGFAEDPTISLLTGSEPPKAKDPTVS
For B1, the “activation of endogenous CD133 gene” value [1] was “most robust activation”, the “transcriptional activation of EGFP reporter by TAD fusions” value [2] was “most robust activation” and the “activity of effector constructs on TetO reporter” value [3] was “the most active constructs in the system”.
